{
  "source": "paper PMC3792966",
  "molecular_target": "SspA of F. tularensis SCHU S4 fused to the Zif protein (F. tularensis SCHU S4)",
  "assay": "two-hybrid",
  "data": [
    {"substance": "MglA of F. tularensis SCHU S4 fused to the ω subunit of E. coli RNA polymerase (natural protein)", "values": [
      {"measurement": "β-galactosidase activity in strain AW23", "result": 2400, "unit": "AU"},
      {"measurement": "β-galactosidase activity in strain AW24", "result": 26000, "unit": "AU"}
    ]}
  ]
}
